Experimental data from the supplement of paper PMC9112550, “Optimization of the antimicrobial peptide Bac7 by deep mutational scanning” (BMC Biology, 2022).

test system: Escherichia coli TOP10; test: shrunken log2 fold change of peptide-encoding DNA abundance (4.5 h post-induction vs induction); higher = less antimicrobial activity (less host growth inhibition); details: time post-induction: 4.5 h; library: site-saturation at positions 5, 18, 19, 20
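Note: peptides expressed intracellularly from a pBAD plasmid library in pooled LB shake-flask culture, induced with 0.3% L-arabinose, DNA abundance read by NGS, three biological replicates, DESeq2 with apeglm shrinkage.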

Sequence	shrunken log2 fold change
RRIRMRPPRLPRPRPRPHFTPRP	-0.173
RRIRSRPPRLPRPRPRPMYGPRP	-0.844
RRIRIRPPRLPRPRPRPEVKPRP	0.135
RRIRGRPPRLPRPRPRPDDRPRP	0.814
RRIRKRPPRLPRPRPRPAPTPRP	1.01
RRIRHRPPRLPRPRPRPDDMPRP	-0.11
RRIRMRPPRLPRPRPRPVLDPRP	0.331
RRIRTRPPRLPRPRPRPQCLPRP	0.0552
RRIRCRPPRLPRPRPRPNKIPRP	-0.461
RRIRMRPPRLPRPRPRPKEEPRP	0.0115
RRIRYRPPRLPRPRPRPPTTPRP	-0.165
RRIRGRPPRLPRPRPRPIKCPRP	-0.0104
RRIRRRPPRLPRPRPRPFWRPRP	0.0251
RRIRRRPPRLPRPRPRPHFIPRP	-0.0325
RRIRYRPPRLPRPRPRPMWGPRP	0.171
RRIRGRPPRLPRPRPRPTHLPRP	0.359
RRIRYRPPRLPRPRPRPSPPPRP	-0.469
RRIRNRPPRLPRPRPRPINRPRP	-0.0423
RRIRSRPPRLPRPRPRPHCVPRP	-0.0724
RRIRRRPPRLPRPRPRPVCRPRP	0.562
RRIRHRPPRLPRPRPRPEKLPRP	0.0208
RRIRHRPPRLPRPRPRPSYMPRP	-0.00144
RRIRARPPRLPRPRPRPTAQPRP	0.936
RRIRFRPPRLPRPRPRPWQEPRP	-0.2
RRIRNRPPRLPRPRPRPTMRPRP	0.746

Sequence	shrunken log2 fold change
RRIRMRPPRLPRPRPRPAFPPRP	-0.104
RRIRIRPPRLPRPRPRPELGPRP	0.0694
RRIRARPPRLPRPRPRPERFPRP	0.0769
RRIRWRPPRLPRPRPRPAATPRP	2.26
RRIRHRPPRLPRPRPRPLTWPRP	-0.135
RRIRRRPPRLPRPRPRPIWHPRP	0.176
RRIRDRPPRLPRPRPRPGWAPRP	0.718
RRIRRRPPRLPRPRPRPGMLPRP	0.0899
RRIRYRPPRLPRPRPRPSHWPRP	-0.225
RRIRERPPRLPRPRPRPRRQPRP	0.00864
RRIRRRPPRLPRPRPRPYCFPRP	-0.37
RRIRTRPPRLPRPRPRPRFSPRP	-0.14
RRIRTRPPRLPRPRPRPIMDPRP	-0.233
RRIRKRPPRLPRPRPRPFNSPRP	-0.0903
RRIRERPPRLPRPRPRPLDWPRP	-0.0749
RRIRCRPPRLPRPRPRPDVAPRP	0.298
RRIRRRPPRLPRPRPRPPYMPRP	0.315
RRIRGRPPRLPRPRPRPTEFPRP	0.327
RRIRLRPPRLPRPRPRPHNFPRP	-0.115
RRIRYRPPRLPRPRPRPFSKPRP	-0.107
RRIRLRPPRLPRPRPRPFQWPRP	-0.0972
RRIRWRPPRLPRPRPRPGLAPRP	0.505
RRIRARPPRLPRPRPRPATQPRP	0.437
RRIRSRPPRLPRPRPRPNSVPRP	-0.509
RRIRHRPPRLPRPRPRPTCAPRP	0.242

Sequence	shrunken log2 fold change
RRIRLRPPRLPRPRPRPTKMPRP	0.0743
RRIRCRPPRLPRPRPRPDKQPRP	-0.0405
RRIRARPPRLPRPRPRPWLGPRP	0.417
RRIRTRPPRLPRPRPRPNHSPRP	-0.925
RRIRQRPPRLPRPRPRPHDEPRP	-0.158
RRIRGRPPRLPRPRPRPEHNPRP	0.327
RRIRCRPPRLPRPRPRPGDQPRP	0.256
RRIRGRPPRLPRPRPRPRCAPRP	1.09
RRIRARPPRLPRPRPRPEGDPRP	1.39
RRIRLRPPRLPRPRPRPLTIPRP	-0.0053
RRIRERPPRLPRPRPRPINAPRP	-0.129
RRIRVRPPRLPRPRPRPEWWPRP	0.191
RRIRVRPPRLPRPRPRPPPLPRP	0.669
RRIRRRPPRLPRPRPRPTYKPRP	-0.163
RRIRVRPPRLPRPRPRPHVHPRP	-0.45
RRIRERPPRLPRPRPRPCSKPRP	0.2
RRIRIRPPRLPRPRPRPMQIPRP	-0.099
RRIRYRPPRLPRPRPRPNITPRP	-1.03
RRIRDRPPRLPRPRPRPLWRPRP	0.152
RRIRTRPPRLPRPRPRPAIAPRP	0.101
RRIRVRPPRLPRPRPRPGCWPRP	0.594
RRIRHRPPRLPRPRPRPQAIPRP	-0.119
RRIRPRPPRLPRPRPRPKEGPRP	-0.00237
RRIRCRPPRLPRPRPRPSPQPRP	0.445
RRIRSRPPRLPRPRPRPIKIPRP	-0.209

Sequence	shrunken log2 fold change
RRIRPRPPRLPRPRPRPRKTPRP	0.0393
RRIRQRPPRLPRPRPRPNVVPRP	0.0298
RRIRKRPPRLPRPRPRPCVGPRP	0.334
RRIRLRPPRLPRPRPRPYLDPRP	0.0027
RRIRYRPPRLPRPRPRPAMTPRP	0.165
RRIRMRPPRLPRPRPRPHGTPRP	0.148
RRIRIRPPRLPRPRPRPKIYPRP	-0.581
RRIRSRPPRLPRPRPRPIVCPRP	0.0317
RRIRDRPPRLPRPRPRPEHKPRP	0.0114
RRIRMRPPRLPRPRPRPWTSPRP	0.0303
RRIRHRPPRLPRPRPRPSFDPRP	-0.429
RRIRTRPPRLPRPRPRPPYAPRP	-0.17
RRIRPRPPRLPRPRPRPSSSPRP	-0.134
RRIRFRPPRLPRPRPRPCYSPRP	0.019
RRIRERPPRLPRPRPRPHCVPRP	0.038
RRIRMRPPRLPRPRPRPITNPRP	-0.192
RRIRIRPPRLPRPRPRPSHYPRP	-0.528
RRIRTRPPRLPRPRPRPYLMPRP	-0.601
RRIRARPPRLPRPRPRPIIGPRP	-0.065
RRIRWRPPRLPRPRPRPHRFPRP	0.077
RRIRQRPPRLPRPRPRPLWWPRP	0.121
RRIRRRPPRLPRPRPRPSQKPRP	-0.00949
RRIRNRPPRLPRPRPRPTVHPRP	-0.514
RRIRARPPRLPRPRPRPHRKPRP	-0.000548
RRIRARPPRLPRPRPRPAFMPRP	0.525

Sequence	shrunken log2 fold change
RRIRERPPRLPRPRPRPHRYPRP	0.0893
RRIRYRPPRLPRPRPRPQICPRP	-0.00591
RRIRPRPPRLPRPRPRPIQCPRP	0.0062
RRIRARPPRLPRPRPRPSHYPRP	-0.0225
RRIRDRPPRLPRPRPRPTYDPRP	-0.208
RRIRDRPPRLPRPRPRPIPMPRP	-0.00947
RRIRTRPPRLPRPRPRPDWMPRP	0.0121
RRIRTRPPRLPRPRPRPDSAPRP	0.0773
RRIRGRPPRLPRPRPRPCGLPRP	0.641
RRIRNRPPRLPRPRPRPEWGPRP	0.114
RRIRLRPPRLPRPRPRPRQGPRP	0.252
RRIRSRPPRLPRPRPRPVMYPRP	-0.0786
RRIRERPPRLPRPRPRPDIAPRP	-0.0321
RRIRRRPPRLPRPRPRPCTCPRP	-0.111
RRIRLRPPRLPRPRPRPCIIPRP	-0.394
RRIRARPPRLPRPRPRPFTNPRP	-0.273
RRIRPRPPRLPRPRPRPSWSPRP	-0.0705
RRIRMRPPRLPRPRPRPLNRPRP	0.0437
RRIRFRPPRLPRPRPRPTREPRP	0.599
RRIRWRPPRLPRPRPRPMPCPRP	0.113
RRIRQRPPRLPRPRPRPPMFPRP	-0.325
RRIRCRPPRLPRPRPRPPDIPRP	0.409
RRIRARPPRLPRPRPRPGCCPRP	0.841
RRIRMRPPRLPRPRPRPICVPRP	0.196
RRIRSRPPRLPRPRPRPKWKPRP	-0.0184

Sequence	shrunken log2 fold change
RRIRVRPPRLPRPRPRPIPFPRP	0.0609
RRIRWRPPRLPRPRPRPWFDPRP	2.76
RRIRFRPPRLPRPRPRPFEHPRP	-0.0558
RRIRRRPPRLPRPRPRPAAAPRP	0.941
RRIRCRPPRLPRPRPRPKHMPRP	-0.25
RRIRARPPRLPRPRPRPKHWPRP	0.593
RRIRKRPPRLPRPRPRPGFDPRP	0.98
RRIRDRPPRLPRPRPRPCWEPRP	0.28
RRIRKRPPRLPRPRPRPTIRPRP	-0.241
RRIRRRPPRLPRPRPRPSTFPRP	-0.02
RRIRGRPPRLPRPRPRPELSPRP	0.169
RRIRPRPPRLPRPRPRPCKEPRP	-0.0274
RRIRCRPPRLPRPRPRPHKVPRP	-0.446
RRIRKRPPRLPRPRPRPAGRPRP	0.432
RRIRHRPPRLPRPRPRPQKAPRP	-0.0296
RRIRERPPRLPRPRPRPWVGPRP	0.0249
RRIRERPPRLPRPRPRPMPAPRP	-0.0153
RRIRLRPPRLPRPRPRPHCIPRP	-0.0543
RRIRRRPPRLPRPRPRPPNEPRP	0.804
RRIRPRPPRLPRPRPRPHTHPRP	-0.434
RRIRERPPRLPRPRPRPFRDPRP	0.0112
RRIRCRPPRLPRPRPRPYKIPRP	-0.785
RRIRERPPRLPRPRPRPETFPRP	-0.0158
RRIRFRPPRLPRPRPRPNTYPRP	-0.499
RRIRNRPPRLPRPRPRPIWVPRP	-0.0659
